Target: human CRF1 receptor (human) (UniProt P34998)
Assay: cell-based or functional assay

Sequence of human CRF1 receptor (human) (P34998 24-415): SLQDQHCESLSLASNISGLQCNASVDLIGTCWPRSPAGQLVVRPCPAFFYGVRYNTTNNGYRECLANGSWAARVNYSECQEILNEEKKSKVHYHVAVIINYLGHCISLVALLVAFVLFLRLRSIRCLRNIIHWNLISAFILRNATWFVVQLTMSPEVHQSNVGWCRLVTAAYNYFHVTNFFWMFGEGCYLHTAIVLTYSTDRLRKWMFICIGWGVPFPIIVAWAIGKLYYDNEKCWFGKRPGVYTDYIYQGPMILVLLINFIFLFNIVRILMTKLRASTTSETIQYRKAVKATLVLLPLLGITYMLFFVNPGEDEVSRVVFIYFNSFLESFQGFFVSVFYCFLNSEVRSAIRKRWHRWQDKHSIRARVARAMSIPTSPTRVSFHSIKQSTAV

“sauvagine (from UniProt P01144 1-40) (peptide)” was tested. Which FLIPR Ca^2+ response EC50, CHEM-1 cells did it give?
Its FLIPR Ca^2+ response EC50, CHEM-1 cells is 12 nM.

And the FLIPR EC50, CRF1/CHEM-1 cells?
Its FLIPR EC50, CRF1/CHEM-1 cells is 10 nM.

What about the cAMP response EC50, CHEM-1 cells of the same substance?
The cAMP response EC50, CHEM-1 cells was 4.9 nM.

What about the cAMP response EC50, CHO cells of the same substance?
The cAMP response EC50, CHO cells was 8.4 nM.

From patent publication US20060141569A1, “Compositions and methods for the assay of G-protein coupled receptors and their ligands” (priority 2004, published 2006)
